The values below come from IntAct's records for PubMed 21151871.

The chains are these.
B1: Guanylate-binding protein 1 (Homo sapiens), P32455 (parent)
chain: MASEIHMTGPMCLIENTNGRLMANPEALKILSAITQPMVVVAIVGLYRTGKSYLMNKLAGKKKGFSLGSTVQSHTKGIWMWCVPHPKKPGHILVLLDTEGLGDVEKGDNQNDSWIFALAVLLSSTFVYNSIGTINQQAMDQLYYVTELTHRIRSKSSPDENENEVEDSADFVSFFPDFVWTLRDFSLDLEADGQPLTPDEYLTYSLKLKKGTSQKDETFNLPRLCIRKFFPKKKCFVFDRPVHRRKLAQLEKLQDEELDPEFVQQVADFCSYIFSNSKTKTLSGGIQVNGPRLESLVLTYVNAISSGDLPCMENAVLALAQIENSAAVQKAIAHYEQQMGQKVQLPTETLQELLDLHRDSEREAIEVFIRSSFKDVDHLFQKELAAQLEKKRDDFCKQNQEASSDRCSALLQVIFSPLEEEVKAGIYSKPGGYRLFVQKLQDLKKKYYEEPRKGIQAEEILQTYLKSKESMTDAILQTDQTLTEKEKEIEVERVKAESAQASAKMLQEMQRKNEQMMEQKERSYQEHLKQLTEKMENDRVQLLKEQERTLALKLQEQEQLLKEGFQKESRIMKNEIQDLQTKMRRRKACTIS
partner: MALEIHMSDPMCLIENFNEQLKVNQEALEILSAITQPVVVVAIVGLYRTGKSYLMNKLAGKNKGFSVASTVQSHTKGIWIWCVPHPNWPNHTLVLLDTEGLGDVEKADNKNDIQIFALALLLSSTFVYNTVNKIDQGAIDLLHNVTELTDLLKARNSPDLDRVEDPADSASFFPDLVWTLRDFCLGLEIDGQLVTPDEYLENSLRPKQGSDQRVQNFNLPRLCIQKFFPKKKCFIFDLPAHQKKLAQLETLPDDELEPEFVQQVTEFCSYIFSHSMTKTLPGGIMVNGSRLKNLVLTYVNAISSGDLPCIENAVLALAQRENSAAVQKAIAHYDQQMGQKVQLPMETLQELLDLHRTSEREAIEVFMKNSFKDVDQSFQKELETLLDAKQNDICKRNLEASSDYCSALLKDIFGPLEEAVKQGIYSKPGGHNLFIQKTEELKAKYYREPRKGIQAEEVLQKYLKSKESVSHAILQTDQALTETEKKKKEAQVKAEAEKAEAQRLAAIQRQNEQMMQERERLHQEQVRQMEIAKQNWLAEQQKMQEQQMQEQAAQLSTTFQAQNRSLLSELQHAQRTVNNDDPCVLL
B2: Guanylate-binding protein 1 (Homo sapiens), P32455 (parent)
chain: B1 chain
partner: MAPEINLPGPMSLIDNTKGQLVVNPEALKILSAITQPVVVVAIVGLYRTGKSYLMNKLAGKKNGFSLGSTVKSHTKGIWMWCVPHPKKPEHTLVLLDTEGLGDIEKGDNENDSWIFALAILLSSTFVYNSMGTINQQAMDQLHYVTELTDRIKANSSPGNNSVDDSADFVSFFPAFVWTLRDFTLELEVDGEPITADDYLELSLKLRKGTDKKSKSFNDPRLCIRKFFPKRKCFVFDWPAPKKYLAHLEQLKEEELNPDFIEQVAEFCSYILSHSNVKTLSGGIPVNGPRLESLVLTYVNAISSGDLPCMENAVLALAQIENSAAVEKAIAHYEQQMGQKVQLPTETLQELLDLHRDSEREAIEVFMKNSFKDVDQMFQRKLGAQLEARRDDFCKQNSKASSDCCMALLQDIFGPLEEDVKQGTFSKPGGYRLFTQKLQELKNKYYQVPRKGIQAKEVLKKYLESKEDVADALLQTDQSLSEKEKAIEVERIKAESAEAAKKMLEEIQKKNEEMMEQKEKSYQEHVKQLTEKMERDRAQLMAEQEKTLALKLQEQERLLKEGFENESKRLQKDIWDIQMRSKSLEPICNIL

One assay covers variants of B1. The conditions noted are these: with gbp5_human GBP5, Q96PP8.
With MASEIHMTGPMCLIENTNGRLMANPEALKILSAITQPMVVVAIVGLYRTGASYLMNKLAGKKKGFSLGSTVQSHTKGIWMWCVPHPKKPGHILVLLDTEGLGDVEKGDNQNDSWIFALAVLLSSTFVYNSIGTINQQAMDQLYYVTELTHRIRSKSSPDENENEVEDSADFVSFFPDFVWTLRDFSLDLEADGQPLTPDEYLTYSLKLKKGTSQKDETFNLPRLCIRKFFPKKKCFVFDRPVHRRKLAQLEKLQDEELDPEFVQQVADFCSYIFSNSKTKTLSGGIQVNGPRLESLVLTYVNAISSGDLPCMENAVLALAQIENSAAVQKAIAHYEQQMGQKVQLPTETLQELLDLHRDSEREAIEVFIRSSFKDVDHLFQKELAAQLEKKRDDFCKQNQEASSDRCSALLQVIFSPLEEEVKAGIYSKPGGYRLFVQKLQDLKKKYYEEPRKGIQAEEILQTYLKSKESMTDAILQTDQTLTEKEKEIEVERVKAESAQASAKMLQEMQRKNEQMMEQKERSYQEHLKQLTEKMENDRVQLLKEQERTLALKLQEQEQLLKEGFQKESRIMKNEIQDLQTKMRRRKACTIS [K51A], the “effect of a mutation on the interaction” value is on record as “disrupting interaction strength”.

A further assay covers variants of B2. The conditions noted are these: with gbp2_human GBP2, P32456.
For the variant MASEIHMTGPMCLIENTNGRLMANPEALKILSAITQPMVVVAIVGLYRTGASYLMNKLAGKKKGFSLGSTVQSHTKGIWMWCVPHPKKPGHILVLLDTEGLGDVEKGDNQNDSWIFALAVLLSSTFVYNSIGTINQQAMDQLYYVTELTHRIRSKSSPDENENEVEDSADFVSFFPDFVWTLRDFSLDLEADGQPLTPDEYLTYSLKLKKGTSQKDETFNLPRLCIRKFFPKKKCFVFDRPVHRRKLAQLEKLQDEELDPEFVQQVADFCSYIFSNSKTKTLSGGIQVNGPRLESLVLTYVNAISSGDLPCMENAVLALAQIENSAAVQKAIAHYEQQMGQKVQLPTETLQELLDLHRDSEREAIEVFIRSSFKDVDHLFQKELAAQLEKKRDDFCKQNQEASSDRCSALLQVIFSPLEEEVKAGIYSKPGGYRLFVQKLQDLKKKYYEEPRKGIQAEEILQTYLKSKESMTDAILQTDQTLTEKEKEIEVERVKAESAQASAKMLQEMQRKNEQMMEQKERSYQEHLKQLTEKMENDRVQLLKEQERTLALKLQEQEQLLKEGFQKESRIMKNEIQDLQTKMRRRKACTIS [K51A], the “effect of a mutation on the interaction” value is given as “disrupting interaction strength”.
